One molecule from patent US20150133651, “CslA9 Gluco-mannan Synthase Gene” (published 2015) can be followed below.

In data set [1] the target is MYB83 (At3g08500) (Arabidopsis thaliana, UniProt Q9C6U1 Q9C6U1:1-343). The experiment in a line: EMSA; 10 mM Tris pH 7.5, 50 mM KCl, 5 mM MgCl2, poly(dI-dC). To be noted: tags: GST fusion, E. coli Rosetta gami; label: 32P. On the procedure:
(§1) DNA fragments for EMSA were obtained by PCR-amplification and labeled with [γ-³²P]ATP using T4 polynucleotide kinase (NEB). The end-labeled probes were purified with Microspin S-200 HR column (GE Healthcare). The labeled DNA fragments were incubated for 25 min with 50 ng of GST-MYB46, GST-MYB83, GST-bZIP1 and GSTANAC041 in a binding buffer [10 mM Tris (pH 7.5), 50 mM KCl, 1 mM DTT, 2.5% glycerol, 5 mM MgCl₂, 100 μg/ml BSA, and 50 ng/μL poly(dI-dC)]. Five percent polyacrylamide gel electrophoresis (PAGE) was used to separate the recombinant protein-bound DNA fragments from the unbound ones. The gel was dried and placed in a film cassette and exposed to X-ray film (Kodak) for overnight. Radioactive fragments were visualized by autoradiography.
(A gel shift assay detects complexes by their altered migration in electrophoresis.)

Data set [2] concerns the target MYB46 (Arabidopsis thaliana, UniProt Q9LXV2 SEQ:1-280). The experiment in a line: EMSA; 10 mM Tris pH 7.5, 50 mM KCl, 5 mM MgCl2, poly(dI-dC); competed by 50x unlabeled probe. The settings on record: tags: GST fusion, E. coli Rosetta gami; label: 32P. As to the method:
as §1
To evaluate whether MYB46 could directly bind to the CSLA9 promoter sequence, electrophoretic mobility shift assays (EMSAs) were performed with the GST-MYB46 fusion protein as described in Example 1.

MYB83 (At3g08500), sequence (Q9C6U1 whole entry, the tested form may be a part, one chain of several): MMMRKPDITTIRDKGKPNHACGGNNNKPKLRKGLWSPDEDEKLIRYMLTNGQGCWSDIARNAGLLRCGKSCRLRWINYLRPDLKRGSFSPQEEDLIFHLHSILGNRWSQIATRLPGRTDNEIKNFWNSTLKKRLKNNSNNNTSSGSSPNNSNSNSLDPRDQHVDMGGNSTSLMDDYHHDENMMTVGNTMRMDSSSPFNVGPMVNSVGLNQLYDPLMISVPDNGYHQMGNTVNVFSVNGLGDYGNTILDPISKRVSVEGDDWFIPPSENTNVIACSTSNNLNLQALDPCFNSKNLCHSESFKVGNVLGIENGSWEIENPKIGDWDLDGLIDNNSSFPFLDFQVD
MYB46, sequence (Q9LXV2 whole entry, the tested form may be a part): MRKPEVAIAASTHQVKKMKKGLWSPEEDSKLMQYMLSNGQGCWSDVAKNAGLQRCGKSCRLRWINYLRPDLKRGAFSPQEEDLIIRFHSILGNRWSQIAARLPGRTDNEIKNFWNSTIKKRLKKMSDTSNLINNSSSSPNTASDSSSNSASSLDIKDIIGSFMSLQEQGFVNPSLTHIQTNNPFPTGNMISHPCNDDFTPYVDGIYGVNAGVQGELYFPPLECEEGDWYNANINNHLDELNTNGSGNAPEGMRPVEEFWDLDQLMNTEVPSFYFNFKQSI

B1: CSLA9 promoter -705 to -556 (dsDNA)
DNA 1: CTTAAAATAACAATTTGTTTTGTATCTTCGCCTGGACGTCATTAATGTTTGTGTCGTTCAATAATGTTTGGTAGTTATATATAGAAAGAGCAAATTTATGGTTGATTGATGGTGCAAAAAAATTCATTTCTCTATATTCTAGAGAAATAA
DNA 2: TTATTTCTCTAGAATATAGAGAAATGAATTTTTTTGCACCATCAATCAACCATAAATTTGCTCTTTCTATATATAACTACCAAACATTATTGAACGACACAAACATTAATGACGTCCAGGCGAAGATACAAAACAAATTGTTATTTTAAG
With B1, the binding result in data set [1] and in data set [2] was “binds” throughout.
